Experiments:
[1] = XPS of protein-loaded and protein-adsorbed nanotube surfaces; assay type: physicochemical; details: Adsorbed (control)
Procedure: To evaluate the differences in amounts of protein in nanotubes, X-ray photoelectron spectroscopy (XPS) analysis was carried out. XPS is a surface sensitive technique which can detect changes in surface composition for up to 2-20 atomic layers, depending on the material. Since the nanotubes are approximately 400 nm long, XPS can be used to verify the differences in surface concentrations due to different amounts of BSA and LYS loaded. The loaded nanotube surfaces along with adsorbed surfaces were mounted on an XPS stage. Three spots per sample were analyzed. The analysis was conducted on a SSI S-Probe Monochromatized XPS Spectrometer which uses an Al-Kα-X-ray source (1486.6 eV) with an Omni Focus III small area lens and multichannel detector. A concentric hemispherical analyzer (CHA) was operated in the constant analyzer transmission mode to measure the binding energies of emitted photoelectrons. The binding energy scale was calibrated by the Au4f7/2 peak at 83.9 eV, and the linearity was verified by the Cu3p1/2 and Cu2p3/2 peaks at 76.5 and 932.5 eV respectively. Survey spectra were collected from 0 to 1100 eV with pass energy of 160 eV, and high-resolution C1s spectra were collected for each element detected with pass energy of 10 eV. Survey and high resolution spectra were collected at a 65° take off angle, defined as the angle spanned by the electron path to the analyzer and the sample surface. All spectra were referenced by setting the hydrocarbon C1s peak to 285.0 eV to compensate for residual charging effects. Data for percent atomic composition and atomic ratios were calculated using the manufacturer supplied sensitivity factor.
To evaluate the differences in amounts of protein in nanotubes, X-ray photoelectron spectroscopy (XPS) analysis was carried out. […] LYS and BSA adsorbed surfaces were used as controls. There is a steady increase in N/C ratios with increasing amounts of protein loaded into the nanotubes. A more precise way to characterize protein on the surface is to determine the fraction of C—N and N—C═O peaks in overall C1s peak. The C—N and N—C═O peaks are characteristic of proteins which are at a shift of 0.8 eV and 1.8 eV respectively from the C—C peak (285 eV). Thus, high resolution C1s scans were taken and the peak fit analysis software provided with the XPS instrument was used to determine % of C—N and N—C═O in the overall C1s peak (Table 3). A convolution of Gaussian components was assumed for all the peaks. There is an increase in the intensity for the […], C—N and N—C═O peaks with increasing amounts of proteins loaded into the nanotubes.

[2] = Release of proteins from nanotubes into PBS (Micro-BCA); assay type: physicochemical; parameters: time point at which all the protein is released from the nanotubes: unit: min; details: for time point at which all the protein is released from the nanotubes: PBS, room temperature, 70 rpm
Procedure: In order to release the proteins from the nanotubes, the surfaces were immersed in 500 μl of PBS in a 24-well plate at room temperature with orbital shaking at 70 rpm. 200 μl of samples were taken after specific intervals of time to determine the release kinetics. Samples were collected periodically for up to 120 minutes. The solution was replaced with 200 μl of fresh PBS every time the samples were taken. The samples were analyzed for protein content using a commercially available Micro-BCA assay kit and the concentration was adjusted for dilutions due to replacement of fresh PBS.

[3] = cited from earlier work

Substance | C—C fraction of overall C1s peak (high resolution XPS) [1] | C—N fraction of overall C1s peak (high resolution XPS) [1] | N/C ratio (XPS survey scan) [1] | N—C═O fraction of overall C1s peak (high resolution XPS) [1] | time point at which all the protein is released from the nanotubes ([2]; 200 μg loaded) | time point at which all the protein is released from the nanotubes ([2]; 400 μg loaded) | time point at which all the protein is released from the nanotubes ([2]; 800 μg loaded) | Net charge @ pH 7.0 [3] | release from the nanotubes compared to that of BSA (in words) [2]
Bovine Serum Albumin: model protein, larger molecule with net negative charge, loaded into titania nanotubes | 0.81 | 0.11 | 0.123 | 0.08 | 25 | 50 | 65 | −18 | –
Lysozyme: model protein, smaller in size with net positive charge, loaded into titania nanotubes | 0.73 | 0.22 | 0.215 | 0.03 | 36 | 85 | 110 | +7 | much slower
